In patent US20030195337A1 (IMMUNEX, published 2003):

B1: ULBP3, full length, expressed on transfected CV-1 cells (ligand)
chain: DAHSLWYNFTIIHLPRHGQQWCEVQSQVDQKNFLSYDCGSDKVLSMGHLEEQLYATDAWGKQLEMLREVGQRLRLELADTELEDFTPSGPLTLQVRMSCECEADGYIRGSWQFSFDGRKFLLFDSNNRKWTVVHAGARRMKEKWEKDSGLTTFFKMVSMRDCKSWLRDFLMHRKKRLEPTAPPTMAPG
notes: Full length cDNA in pDC409, expressed on CV-1 cells
B2: ULBP4, full length, expressed on transfected CV-1 cells (ligand)
chain: HSLCFNFTIKSLSRPGQPWCEAQVFLNKNLFLQYNSDNNMVKPLGLLGKKVYATSTWGELTQTLGEVGRDLRMLLCDIKPQIKTSDPSTLQVEMFCQREAERCTGASWQFATNGEKSLLFDAMNMTWTVINHEASKIKETWKKDRGLEKYFRKLSKGDCDHWLREFLGHWEAMPEPTVSPVNASDIHWSSSSLPDRWIILGAFILLVLMGIVLICVWWQNGEWQAGLWPLRTS
notes: Full length cDNA in pDC409, expressed on CV-1 cells; The terminus was not determined for the cell-surface form itself
B3: murine NKG2D-Fc fusion protein (Fc fusion, UniProt O54709 90-232, looked up)
chain: FKETFQPVLCNKEVPVSSREGYCGPCPNNWICHRNNCYQFFNEEKTWNQSQASCLSQNSSLLKIYSKEEQDFLKLVKSYHWMGLVQIPANGSWQWEDGSSLSYNQLTLVEIPKGSCAVYGSSFKAYTEDCANLNTYICMKRAV
notes: extracellular domain; Soluble protein made in CV-1 cells; not shown: hinge and Fc region of a modified human IgG1 (Fc mutein of Baum et al. 1994)

Columns and labels:
[1] = target: human NK cells (primary, stimulated overnight with recombinant human IL-15) (human); assay: flow cytometry; 1 ug protein on about one million IL-15 stimulated human NK cells, labeled anti-human IgG Fc; no protein control = 6
[2] = target: ULBP1, full length, expressed on transfected CV-1 cells (human) (UniProt Q9BZM6); assay: flow cytometry; Fc fusion protein on CV-1 cells transfected with full length ULBP; +++ = more than two logs above background
[3] = target: ULBP4, full length, expressed on transfected CV-1 cells (human) (UniProt Q8TD07); assay: as above
[4] = target: ULBP3, full length, expressed on transfected CV-1 cells (human) (UniProt Q9BZM4); assay: as above
[5] = target: ULBP2, full length, expressed on transfected CV-1 cells (human) (UniProt Q9BZM5); assay: as above
UL16-Fc fusion protein = target: T1, UL16-Fc fusion protein (human cytomegalovirus (HCMV); human, UniProt P16757 27-184; P01857 99-330 = IgG part); assay: flow cytometry; Fc fusion protein on CV-1 cells transfected with full length ULBP, PE anti-human IgG Fc
T1 construct: extracellular domain;domain: modified human IgG1 Fc region; Soluble fusion protein prepared as in Cosman et al. 2001

[6] = target: B1; assay: as above

T1 sequence (P16757 27-184, tags or fused parts left off): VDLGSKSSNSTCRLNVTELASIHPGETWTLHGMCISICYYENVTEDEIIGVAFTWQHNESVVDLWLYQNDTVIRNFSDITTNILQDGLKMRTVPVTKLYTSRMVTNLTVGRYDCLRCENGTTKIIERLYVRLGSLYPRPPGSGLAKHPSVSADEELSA
ULBP2, full length, expressed on transfected CV-1 cells (human), sequence (Q9BZM5 26-217 limits assumed): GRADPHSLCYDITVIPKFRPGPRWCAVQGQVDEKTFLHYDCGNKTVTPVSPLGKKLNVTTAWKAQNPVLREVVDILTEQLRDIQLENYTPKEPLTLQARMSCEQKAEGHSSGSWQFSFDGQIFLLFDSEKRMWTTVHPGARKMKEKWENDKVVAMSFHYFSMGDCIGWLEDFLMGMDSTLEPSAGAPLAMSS

Molecule: ULBP1:Fc fusion protein (from UniProt Q9BZM6 26-216)
- Mean fluorescence intensity [1]: 35

Molecule: human NKG2D-Fc fusion protein (from UniProt P26718 73-216; P01857 99-330)
- fluorescence above background (flow cytometry) (logabovebackground) [2]: > 2
- fluorescence above background (flow cytometry) (logabovebackground) [3]: > 2
- fluorescence above background (flow cytometry) (logabovebackground) [4]: > 2
- fluorescence above background (flow cytometry) (logabovebackground) [5]: > 2

Molecule: B1
- binding result (UL16-Fc fusion protein): no binding

Molecule: B2
- binding result (UL16-Fc fusion protein): no binding

Molecule: B3
- binding result [6]: no binding
